Assays:
[1] = target: MspA-((Del-L74/G75/D118/L119)G1A/D56N/E59F/L88N/D90N/D91N/Q126R/D134R/E139K)8
[2] = target: MspA-((Del-L74/G75/D118/L119)D56F/E59R/L88N/D90N/D91N/Q126R/D134R/E139K)8

B1: T4 Dda-E94C/C109A/C136A/K199L/A360C (protein)
chain: MTFDDLTEGQKNAFNIVMKAIKEKKHHVTINGPAGTGKTTLTKFIIEALISTGETGIILAAPTHAAKKILSKLSGKEASTIHSILKINPVTYECNVLFEQKEVPDLAKARVLICDEVSMYDRKLFKILLSTIPPWATIIGIGDNKQIRPVDPGENTAYISPFFTHKDFYQCELTEVKRSNAPIIDVATDVRNGKWIYDLVVDGHGVRGFTGDTALRDFMVNYFSIVKSLDDLFENRVMAFTNKSVDKLNSIIRKKIFETDKDFIVGEIIVMQEPLFKTYKIDGKPVSEIIFNNGQLVRIIEAEYTSTFVKARGVPGEYLIRHWDLTVETYGDDEYYREKIKIISSDEELYKFNLFLGKTCETYKNWNKGGKAPWSDFWDAKSQFSKVKALPASTFHKAQGMSVDRAFIYTPCIHYADVELAQQLLYVGVTRGRYDVFYV
With B1 the “% bases missed in construct X” value [1] was “the lowest % bases missed in construct X”, the “slips forward per kilobase” value [1] was “less than 5 slips forward per kilobase” and the “slips forward per kilobase” value [2] was “less than 5 slips forward per kilobase”.

Source: patent US20240060126
